Data published in US20240115683A1 (ULTRAGENYX PHARMACEUTICAL, published 2024).

Target: T1, human FGF23 (fibroblast growth factor 23) (human, UniProt Q9GZV9 25-251)
T1 construct: In the total FGF23 ECLA the FGF23 was recombinant human FGF23 (standards) and endogenous FGF23 in patient serum (samples); It may include the signal peptide; also called recombinant human FGF23; rhFGF23
T1 sequence: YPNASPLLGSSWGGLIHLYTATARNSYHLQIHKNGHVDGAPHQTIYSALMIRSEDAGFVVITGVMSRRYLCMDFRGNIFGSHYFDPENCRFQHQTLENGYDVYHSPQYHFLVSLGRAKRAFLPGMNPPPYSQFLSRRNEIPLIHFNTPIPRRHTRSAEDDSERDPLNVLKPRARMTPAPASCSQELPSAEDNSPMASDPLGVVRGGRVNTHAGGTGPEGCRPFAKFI
Test: total FGF23 ECLA; rhFGF23 standards and serum samples incubated with excess KRN23, complex detected
Method: The mean values of serum total intact FGF23 levels at Baseline were recorded. The total FGF23 ECLA assay measures endogenous FGF23 in the presence of KRN23, whether complexed or unbound in serum. Standards (recombinant human FGF23 [rhFGF23]) and samples are incubated with excess amounts of KRN23 in a buffer matrix then detected by the assay. The assay measures the KRN23/FGF23 complex, which represents all endogenous FGF23 in the sample.

B1: KRN23 (antibody, human IgG1, kappa, V domains shown)
VH: QVQLVQSGAEVKKPGASVKVSCKASGYTFTNHYMHWVRQAPGQGLEWMGIINPISGSTSNAQKFQGRVTMTRDTSTSTVYMELSSLRSEDTAVYYCARDIVDAFDFWGQGTMVTVSS
VL: AIQLTQSPSSLSASVGDRVTITCRASQGISSALVWYQQKPGKAPKLLIYDASSLESGVPSRFSGSGSGTDFTLTISSLQPEDFATYYCQQFNDYFTFGPGTKVDIKR
notes: also called anti-FGF23 antibody KRN23; recombinant fully human monoclonal IgG1 antibody
binding result: binds
